Assay type in all cases: physicochemical
Data set [1] in a line: Chemical stability of the emulsion (peptide content by LC/MS). Conditions: for Content after 2 month at 5° C.: emulsion of Example 5, 2 month at 5° C.; for Content after 2 month at 25° C.: emulsion of Example 5, 2 month at 25° C.; for Content after 2 month at −20° C.: emulsion of Example 5, 2 month at −20° C.; for Initial content: emulsion of Example 5, initial. As to the method:
The chemical stability of the peptides contained in the emulsion prepared according to Example 5 is assessed by means of the following method.
A sample of 0.9 g of the emulsion of Example 5 is accurately weighted and mixed with 0.1% TFA in DMSO so as to fill a 5 mL volumetric flask. The mixture is then vortexed for 2 minutes and centrifuged for 7 minutes at 4000 rpm. The lower layer is then analyzed by Liquid Chromatography/Mass Spectroscopy (LC/MS) using the following chromatographic conditions:
Column: Advance Bio Peptide Mapping LC column, 2.1×250 mm, 2.7 μm, C18, 120 Å, Agilent® reference n° 651750-902 or equivalent
Column temperature: 35° C.±2° C.
Sample temperature: 5° C.
Needle wash: 0.1% Trifluoroacetic acid (TFA) in dimethylsulfoxide (DMSO)
Mobile phase: Eluent A: 0.2% TFA in 5% acetonitrile
• Eluent B: 0.2% TFA in 95% acetonitrile Gradient table: […]
A standard solution is prepared by transferring 0.9 mL of the batch suspension described in Example 1 with 1.1 mL of Montanide ISA 51 in a 10.0 mL volumetric flask, then vortexing and centrifuging the mixture as described above. The lower layer thus obtained is analyzed in the same conditions as above.
The concentration of each peptide is expressed in mg/g using the formula:
[formula] where: A: is the peak area of each peptide in the sample solution S: is the peak area of each peptide in the standard solution W: is the sample weight expressed in g

A short description of data set [2]: Peptide concentration in emulsions prepared with different stirring times. The settings on record: initial concentration in emulsion. As to the method:
Emulsions according to this invention were prepared as described in Example 5, using different stirring times.

The nature of data set [3]: Comparative experiment: emulsion made with high shear mixer, consistency and peptide oxidation. Conditions: high shear mixer batches at 5000 and 8000 rpm. The procedure:
The suspension prepared as described in Example 1 was mixed with the same adjuvant, in the same ratio, except that mixing was conducted by means of a high shear mixer (Silverson® Verso) having a rotor-stator configuration. […] Other batches obtained with the same mixer at 5000 and 8000 rpm led to peptide degradation. Specifically, 8.5% oxidation of peptide […] (SEQ ID NO: 5) was noted after 6 weeks storage at 4° C. and still 2% oxidation at −20° C.

This is an account of results in patent US11981713B2, “Method for manufacturing a stable emulsion for peptide delivery” (OSE IMMUNOTHERAPEUTICS, priority 2017, dated 2024).

For LLTFWNPPV [MPS-213], in data set [1], the “Content after 2 month at 5° C.” value is 0.54 mg/g, the “Content after 2 month at 25° C.” value is 0.54 mg/g, the “Content after 2 month at −20° C.” value amounted to 0.55 mg/g and the Initial content is reported as 0.56 mg/g. This substance yielded a Concentration in data set [2] (stirring time 5 minutes) of 560 µg/mL. In data set [2] (stirring time 10 minutes), this substance returned a Concentration of 560 µg/mL. For the same substance, the Concentration in data set [2] (stirring time 15 minutes) was found to be 560 µg/mL.
RLLQETELV [MPS-112]: in data set [1], the “Content after 2 month at 5° C.” value worked out at 0.55 mg/g, the “Content after 2 month at 25° C.” value was 0.55 mg/g, the “Content after 2 month at −20° C.” value is reported as 0.55 mg/g and the Initial content was 0.57 mg/g. In data set [2] (stirring time 5 minutes), this substance had a Concentration of 560 µg/mL. The substance further displayed a Concentration in data set [2] (stirring time 10 minutes) of 570 µg/mL. In data set [2] (stirring time 15 minutes), this substance displayed a Concentration of 560 µg/mL.
On to “aKXVAAWTLKAAa [MPS-7, peptide with X and a respectively indicating cyclohexylalanine and d-alanine]”, for which, in data set [1], the “Content after 2 month at 5° C.” value amounted to 0.56 mg/g, the “Content after 2 month at 25° C.” value came out at 0.56 mg/g, the “Content after 2 month at −20° C.” value is listed as 0.56 mg/g and the Initial content stood at 0.58 mg/g. For the same substance, the Concentration in data set [2] (stirring time 5 minutes) is 580 µg/mL. Also, in data set [2] (stirring time 10 minutes), the Concentration turned out to be 580 µg/mL. In addition, in data set [2] (stirring time 15 minutes), the Concentration stood at 570 µg/mL.
For the substance SMPPPGTRV [MPS-103], in data set [1], the “Content after 2 month at 5° C.” value came out at 0.54 mg/g, the “Content after 2 month at 25° C.” value is reported as 0.54 mg/g, the “Content after 2 month at −20° C.” value is recorded as 0.55 mg/g and the Initial content turned out to be 0.55 mg/g. The substance also yielded an oxidation in data set [3] (after 6 weeks storage at 4° C.) of 8.5%. Also, in data set [3] (storage at −20° C.), the oxidation was 2%. In data set [2] (stirring time 5 minutes), this substance had a Concentration of 530 µg/mL. In data set [2] (stirring time 10 minutes), this substance registered a Concentration of 560 µg/mL. Besides, the Concentration in data set [2] (stirring time 15 minutes) was 540 µg/mL.
Take KLBPVQLWV [MPS-102]: in data set [1], the “Content after 2 month at 5° C.” value amounted to 0.55 mg/g, the “Content after 2 month at 25° C.” value was 0.55 mg/g, the “Content after 2 month at −20° C.” value was 0.55 mg/g and the Initial content is reported as 0.57 mg/g. The same substance registered a Concentration in data set [2] (stirring time 5 minutes) of 560 µg/mL. In addition, the Concentration in data set [2] (stirring time 10 minutes) was 570 µg/mL. The Concentration in data set [2] (stirring time 15 minutes) is 560 µg/mL.
On to YLSGADLNL [MPS-200], for which, in data set [1], the “Content after 2 month at 5° C.” value amounted to 0.56 mg/g, the “Content after 2 month at 25° C.” value was 0.55 mg/g, the “Content after 2 month at −20° C.” value is 0.56 mg/g and the Initial content is 0.58 mg/g. Moreover, the Concentration in data set [2] (stirring time 5 minutes) was 570 µg/mL. The substance further gave a Concentration in data set [2] (stirring time 10 minutes) of 570 µg/mL. In addition, in data set [2] (stirring time 15 minutes), the Concentration amounted to 570 µg/mL.
Consider IMIGHLVGV [MPS-214], for which, in data set [1], the “Content after 2 month at 5° C.” value amounted to 0.51 mg/g, the “Content after 2 month at 25° C.” value was 0.50 mg/g, the “Content after 2 month at −20° C.” value came out at 0.51 mg/g and the Initial content is given as 0.53 mg/g. In data set [3] (after 6 weeks storage at 4° C.), the oxidation was determined as 16.5%. The substance also had an oxidation in data set [3] (storage at −20° C.) of 4%. The substance also displayed a Concentration in data set [2] (stirring time 5 minutes) of 530 µg/mL. In data set [2] (stirring time 10 minutes), the Concentration turned out to be 530 µg/mL. Further, the Concentration in data set [2] (stirring time 15 minutes) worked out at 530 µg/mL.
